Substrate: Nc1ncnc2c1ncn2[C@@H]1O[C@H](COP(=O)(O)OP(=O)(O)OP(=O)(O)O)[C@@H](O)[C@H]1O
Test: Inhibition constant of the ATP derivative / Km for ATP, p42^mapk assay
Format: biochemical
Settings: other: p42^mapk; pH 7.4
Excerpt: [γ-^32 P] ATP was synthesized according to the procedure set forth in Johnson et al., Advances in Cyclic Nucleotide Research, 10:135-167 (1979). The catalytic subunit of cyclic-AMP-dependent protein kinase was purchased from Promega. p60^c-arc was obtained from the Department of Microbiology, University of Virginia. Recombinant p42^mapk was purified as described in Haystead et al., (1992) FEBS Lett., 306:17-22. STE7 antibody was obtained from the University of Vancouver, Canada.
The 42-kDa MAP kinase (p42^mapk) and MAPKK were assayed as described previously (Haystead et al. (1992) FEBS. Lett., 306:17-22). The cyclic-A kinase assays (30 μl) included 1 μg cyclic-A kinase, 2 mM Kemptide, 50 mM Hepes, pH 7.4, 1 mM dithiothreitol, 200 μM ATP, 5 mM MgCl2. […]
In order to assess the effectiveness of adenosine 5'-(γ-4-aminophenyl)triphosphate as an affinity ligand for protein kinases, the inhibition constants (Ki) of the derivative were determined for four different protein kinases, namely, p42^mapk, cyclic-A kinase, MAPKK and p60^c-arc (Table 1). […] This also facilitated comparisons for the relative binding constants determined with other ATP analogs (Flockhart et al. (1984) Eur. J. Biochem., 140:289-295; Hoppe et al. (1972) Eur. J. Biochem., 80:369-372; Taylor et al. (1990) Peptides and Protein Phosphorylation (Kemp et al.) pp 2-32, CRC Press).

B1: p42^mapk (Mus musculus) (protein)
chain: MAAAAAAGPEMVRGQVFDVGPRYTNLSYIGEGAYGMVCSAYDNLNKVRVAIKKISPFEHQTYCQRTLREIKILLRFRHENIIGINDIIRAPTIEQMKDVYIVQDLMETDLYKLLKTQHLSNDHICYFLYQILRGLKYIHSANVLHRDLKPSNLLLNTTCDLKICDFGLARVADPDHDHTGFLTEYVATRWYRAPEIMLNSKGYTKSIDIWSVGCILAEMLSNRPIFPGKHYLDQLNHILGILGSPSQEDLNCIINLKARNYLLSLPHKNKVPWNRLFPNADSKALDLLDKMLTFNPHKRIEVEQALAHPYLEQYYDPSDEPIAEAPFKFDMELDDLPKEKLKELIFEETARFQPGYRS
notes: made in house
With B1 as the protein, how does the Km read?
Its Km is 7.5 ± 0.71 µM.

Source: patent US5536822A, “γ-phosphate linked adenosine 5' triphosphate sepharose” (University of Virginia Alumni Patents Foundation, priority 1994, dated 1996)
